Results taken from article PMC4219717.

How the values were obtained:
GST-AHSP^WT (human) = GST-AHSP^WT (human) (UniProt Q9NZD4)
UniProt Q9NZD4, sequence (Q9NZD4 whole entry): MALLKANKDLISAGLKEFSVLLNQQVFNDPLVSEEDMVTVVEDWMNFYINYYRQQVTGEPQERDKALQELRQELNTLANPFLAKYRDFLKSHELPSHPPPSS

In the case of GST-α-Hb1-117 (domain or fragment), the CO recombination kinetics after flash photolysis of the GST-AHSP^WT/GST-α-Hb complex: fraction of the intermediate (I) phase (GST-AHSP^WT (human)) is reported as 20 % I phase.
Substance GST-α-Hb1-126 (domain or fragment) has a CO recombination kinetics after flash photolysis of the GST-AHSP^WT/GST-α-Hb complex: fraction of the intermediate (I) phase (GST-AHSP^WT (human)) of 19 % I phase.
GST-α-Hb1-134 (domain or fragment) showed a CO recombination kinetics after flash photolysis of the GST-AHSP^WT/GST-α-Hb complex: fraction of the intermediate (I) phase (GST-AHSP^WT (human)) of 10 % I phase.
Substance GST-α-Hb1-138 (domain or fragment) has a CO recombination kinetics after flash photolysis of the GST-AHSP^WT/GST-α-Hb complex: fraction of the rapid (R) phase (GST-AHSP^WT (human)) of 97 % R phase.
With GST-α-Hb^WT (natural protein) the CO recombination kinetics after flash photolysis of the GST-AHSP^WT/GST-α-Hb complex: fraction of the intermediate (I) phase (GST-AHSP^WT (human)) was 100 % I phase.
In the case of native α-Hb (natural protein), the CO recombination kinetics after flash photolysis of the complex: fraction of the intermediate (I) phase (GST-AHSP^WT (human)) is reported as 100 % I phase.
native β-Hb (natural protein) gave a CO recombination kinetics after addition of β-Hb and 1 mM IHP to the GST-AHSP^WT/GST-α-Hb^WT complex: fraction of the slow (T) phase (GST-α-Hb^WT (human)) of 32 % T phase, a CO recombination kinetics after addition of β-Hb and 1 mM IHP to the GST-AHSP^WT/GST-α-Hb complex: fraction of the rapid (R) phase (GST-α-Hb1-117 (human)) of 88 % R phase and a CO recombination kinetics after addition of β-Hb and 1 mM IHP to the GST-AHSP^WT/GST-α-Hb complex: fraction of the rapid (R) phase (GST-α-Hb1-134 (human)) of 84 % R phase. The CO recombination kinetics after addition of β-Hb and 1 mM IHP to the GST-AHSP^WT/GST-α-Hb complex: fraction of the rapid (R) phase (GST-α-Hb1-138 (human)) was 95 % R phase and the CO recombination kinetics after addition of β-Hb and 1 mM IHP to the GST-AHSP^WT/GST-α-Hb complex: fraction of the rapid (R) phase (GST-α-Hb1-126 (human)) was 80 % R phase.
